Results as given in patent US20180140739A1, “HAEMOSTATIC DEVICE” (HAEMOSTATIX LIMITED, priority 2015, published 2018).

Columns and labels:
Type in all cases: biochemical
human fibrinogen = molecular target: T1, human fibrinogen (Homo sapiens, UniProt P02675+P02679); experiment: Clotting activity of dendrimers extracted from gelatin paste after gamma irradiation and storage; conditions: fibrinogen 3 mg/ml, 37° C.
T1 sequence (P02679 27-433 limits assumed): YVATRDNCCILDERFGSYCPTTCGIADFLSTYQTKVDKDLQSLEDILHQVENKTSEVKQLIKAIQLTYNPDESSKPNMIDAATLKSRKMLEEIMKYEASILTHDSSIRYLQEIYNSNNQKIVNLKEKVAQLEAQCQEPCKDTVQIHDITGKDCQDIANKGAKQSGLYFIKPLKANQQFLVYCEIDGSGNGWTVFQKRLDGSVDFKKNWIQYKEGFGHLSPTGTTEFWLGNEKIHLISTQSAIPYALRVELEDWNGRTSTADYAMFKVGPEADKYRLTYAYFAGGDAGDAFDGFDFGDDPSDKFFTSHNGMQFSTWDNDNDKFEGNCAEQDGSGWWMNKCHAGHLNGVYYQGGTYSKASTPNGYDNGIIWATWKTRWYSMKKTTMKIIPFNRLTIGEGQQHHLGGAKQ
T1 sequence (P02675 31-491): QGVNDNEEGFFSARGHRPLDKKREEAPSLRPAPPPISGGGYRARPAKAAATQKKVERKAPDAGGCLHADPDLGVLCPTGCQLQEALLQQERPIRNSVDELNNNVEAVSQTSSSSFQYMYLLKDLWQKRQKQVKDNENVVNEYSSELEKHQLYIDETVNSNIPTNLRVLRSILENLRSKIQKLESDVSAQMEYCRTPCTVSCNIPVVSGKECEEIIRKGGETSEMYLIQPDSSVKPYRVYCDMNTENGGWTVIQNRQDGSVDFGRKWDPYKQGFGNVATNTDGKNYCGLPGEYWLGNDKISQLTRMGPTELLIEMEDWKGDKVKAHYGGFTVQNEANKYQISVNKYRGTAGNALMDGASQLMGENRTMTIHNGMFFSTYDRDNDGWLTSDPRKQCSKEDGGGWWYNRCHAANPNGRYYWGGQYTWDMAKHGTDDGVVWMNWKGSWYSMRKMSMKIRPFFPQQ
T1 sequence (P02671 20-629 partner limits assumed): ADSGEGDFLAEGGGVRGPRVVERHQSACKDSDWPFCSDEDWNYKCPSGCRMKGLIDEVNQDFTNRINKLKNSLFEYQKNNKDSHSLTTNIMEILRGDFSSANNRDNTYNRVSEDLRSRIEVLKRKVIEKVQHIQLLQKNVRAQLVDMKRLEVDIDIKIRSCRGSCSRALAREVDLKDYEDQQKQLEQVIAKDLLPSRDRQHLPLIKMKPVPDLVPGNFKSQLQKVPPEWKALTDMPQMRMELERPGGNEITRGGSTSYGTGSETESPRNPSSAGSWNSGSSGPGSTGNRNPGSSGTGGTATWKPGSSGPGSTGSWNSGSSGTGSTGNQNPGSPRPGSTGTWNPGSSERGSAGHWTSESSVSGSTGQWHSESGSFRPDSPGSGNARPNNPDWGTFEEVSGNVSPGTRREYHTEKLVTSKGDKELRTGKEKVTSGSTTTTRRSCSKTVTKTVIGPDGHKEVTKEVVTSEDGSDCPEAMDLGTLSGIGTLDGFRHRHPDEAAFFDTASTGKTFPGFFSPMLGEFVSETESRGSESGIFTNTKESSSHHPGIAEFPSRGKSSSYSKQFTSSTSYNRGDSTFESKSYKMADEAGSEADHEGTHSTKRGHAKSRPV
Experimental: 2 ml of solution of Peptide Dendrimer No. 12 or 13 was mixed with SURGIFLO Haemostatic Matrix (a hydrated flowable gelatin matrix) to form a paste of each peptide. Each paste was sterilised by irradiation with ^60Co gamma rays at a dose of 30 kGy, and then stored at room temperature. Samples of the sterilised pastes were used for testing after storage for two and four weeks.
After storage, peptide dendrimers were extracted from each paste using […] HEPES buffer. 30 μL of each extract (with a peptide concentration of about 0.25 mg/ml) was added to 100 μL of human fibrinogen at 3 mg/ml, and the ability of each dendrimer to polymerise fibrinogen (the ‘clotting’ activity) at 37° C. was determined using a Sigma Amelung KC4 Delta coagulation analyser. The polymerisation activity of non-irradiated control samples was also determined.

[1] = molecular target: T2, purified human fibrinogen (Homo sapiens, UniProt P02675+P02679); experiment: Polymerisation (clotting) of purified fibrinogen, Sigma Amelung KC4 Delta coagulation analyser
T2 sequence (P02679 27-433 limits assumed): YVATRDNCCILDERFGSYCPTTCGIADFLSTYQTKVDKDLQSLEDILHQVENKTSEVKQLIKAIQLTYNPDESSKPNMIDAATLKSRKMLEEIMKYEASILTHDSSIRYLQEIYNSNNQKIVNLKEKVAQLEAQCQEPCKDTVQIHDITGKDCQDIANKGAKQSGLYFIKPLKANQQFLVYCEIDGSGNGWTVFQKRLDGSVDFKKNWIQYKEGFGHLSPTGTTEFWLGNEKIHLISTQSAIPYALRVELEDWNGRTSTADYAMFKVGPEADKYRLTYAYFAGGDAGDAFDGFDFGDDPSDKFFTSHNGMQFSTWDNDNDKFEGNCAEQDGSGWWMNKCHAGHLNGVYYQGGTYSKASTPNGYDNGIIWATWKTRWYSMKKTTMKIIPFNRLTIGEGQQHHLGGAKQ
T2 sequence (P02675 31-491): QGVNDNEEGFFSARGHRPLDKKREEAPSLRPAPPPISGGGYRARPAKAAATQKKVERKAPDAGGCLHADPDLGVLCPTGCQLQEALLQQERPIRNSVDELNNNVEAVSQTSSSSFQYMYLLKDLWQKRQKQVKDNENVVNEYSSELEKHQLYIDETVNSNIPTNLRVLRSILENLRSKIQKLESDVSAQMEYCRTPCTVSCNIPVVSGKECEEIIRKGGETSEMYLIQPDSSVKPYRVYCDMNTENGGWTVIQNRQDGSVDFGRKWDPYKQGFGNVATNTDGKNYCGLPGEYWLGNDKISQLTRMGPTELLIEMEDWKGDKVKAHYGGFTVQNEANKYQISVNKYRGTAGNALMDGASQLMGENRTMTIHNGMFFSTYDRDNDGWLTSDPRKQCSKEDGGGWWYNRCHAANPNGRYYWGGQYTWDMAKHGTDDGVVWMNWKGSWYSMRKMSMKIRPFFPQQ
T2 sequence (P02671 20-629 partner limits assumed): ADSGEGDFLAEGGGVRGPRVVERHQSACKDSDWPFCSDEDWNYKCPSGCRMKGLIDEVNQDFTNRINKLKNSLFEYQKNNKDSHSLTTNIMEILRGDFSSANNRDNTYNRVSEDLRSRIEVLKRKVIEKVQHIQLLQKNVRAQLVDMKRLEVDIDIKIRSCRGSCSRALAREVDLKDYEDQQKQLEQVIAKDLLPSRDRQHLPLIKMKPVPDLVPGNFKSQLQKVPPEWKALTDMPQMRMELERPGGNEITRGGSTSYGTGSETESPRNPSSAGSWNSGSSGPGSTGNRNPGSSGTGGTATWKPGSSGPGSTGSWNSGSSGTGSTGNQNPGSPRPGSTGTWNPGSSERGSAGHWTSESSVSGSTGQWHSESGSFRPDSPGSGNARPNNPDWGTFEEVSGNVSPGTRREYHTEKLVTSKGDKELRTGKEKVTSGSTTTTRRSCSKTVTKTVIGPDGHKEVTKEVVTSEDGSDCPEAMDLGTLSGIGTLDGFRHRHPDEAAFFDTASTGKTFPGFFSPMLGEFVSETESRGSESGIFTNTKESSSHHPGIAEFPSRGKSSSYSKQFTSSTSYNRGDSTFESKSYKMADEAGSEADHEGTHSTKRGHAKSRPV
Experimental: The ability of Peptide Dendrimer No. 12 to polymerise fibrinogen was assessed. 30 μl of dendrimer in solution, at concentration ranging from 0.005-2 mg/ml, was added to 100 μl purified human fibrinogen at 3 mg/ml (the level of fibrinogen found in the blood). Polymerisation of fibrinogen was analysed using a Sigma Amelung KC4 Delta coagulation analyser.
The concentration of each dendrimer was varied from 0.005-0.5 mg/ml.

[2] = molecular target: T3, fibrinogen in human plasma (Homo sapiens, UniProt P02675+P02679); experiment: Polymerisation of fibrinogen in human plasma, KC4 Delta coagulation analyzer; conditions: dendrimer 0.25 mg/ml, 30 μL to 100 μL human plasma, 37° C.
T3 construct: from tissue; host or cells: human plasma
T3 sequence (P02679 27-433 limits assumed): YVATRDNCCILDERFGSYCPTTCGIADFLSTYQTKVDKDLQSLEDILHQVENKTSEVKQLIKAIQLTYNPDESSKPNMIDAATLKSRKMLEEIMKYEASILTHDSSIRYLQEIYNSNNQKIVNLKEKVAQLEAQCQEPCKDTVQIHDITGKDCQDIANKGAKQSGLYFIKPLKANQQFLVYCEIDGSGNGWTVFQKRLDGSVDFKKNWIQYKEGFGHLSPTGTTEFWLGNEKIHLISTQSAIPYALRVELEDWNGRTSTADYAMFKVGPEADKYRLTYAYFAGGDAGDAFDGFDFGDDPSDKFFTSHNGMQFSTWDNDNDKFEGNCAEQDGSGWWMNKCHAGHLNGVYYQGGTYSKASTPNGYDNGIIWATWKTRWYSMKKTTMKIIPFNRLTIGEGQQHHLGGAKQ
T3 sequence (P02675 31-491): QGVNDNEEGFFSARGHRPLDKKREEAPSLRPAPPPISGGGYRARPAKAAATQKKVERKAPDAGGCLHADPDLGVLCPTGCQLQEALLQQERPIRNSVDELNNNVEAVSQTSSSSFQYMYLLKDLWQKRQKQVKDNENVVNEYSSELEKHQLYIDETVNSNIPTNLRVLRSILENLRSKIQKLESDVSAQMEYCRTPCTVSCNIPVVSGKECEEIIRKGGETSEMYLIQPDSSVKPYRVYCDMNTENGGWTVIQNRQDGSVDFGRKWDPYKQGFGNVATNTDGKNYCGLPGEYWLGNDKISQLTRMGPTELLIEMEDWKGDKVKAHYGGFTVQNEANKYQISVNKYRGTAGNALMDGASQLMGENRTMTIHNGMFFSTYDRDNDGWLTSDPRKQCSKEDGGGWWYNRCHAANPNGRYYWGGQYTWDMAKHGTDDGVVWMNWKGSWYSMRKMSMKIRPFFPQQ
T3 sequence (P02671 20-629 partner limits assumed): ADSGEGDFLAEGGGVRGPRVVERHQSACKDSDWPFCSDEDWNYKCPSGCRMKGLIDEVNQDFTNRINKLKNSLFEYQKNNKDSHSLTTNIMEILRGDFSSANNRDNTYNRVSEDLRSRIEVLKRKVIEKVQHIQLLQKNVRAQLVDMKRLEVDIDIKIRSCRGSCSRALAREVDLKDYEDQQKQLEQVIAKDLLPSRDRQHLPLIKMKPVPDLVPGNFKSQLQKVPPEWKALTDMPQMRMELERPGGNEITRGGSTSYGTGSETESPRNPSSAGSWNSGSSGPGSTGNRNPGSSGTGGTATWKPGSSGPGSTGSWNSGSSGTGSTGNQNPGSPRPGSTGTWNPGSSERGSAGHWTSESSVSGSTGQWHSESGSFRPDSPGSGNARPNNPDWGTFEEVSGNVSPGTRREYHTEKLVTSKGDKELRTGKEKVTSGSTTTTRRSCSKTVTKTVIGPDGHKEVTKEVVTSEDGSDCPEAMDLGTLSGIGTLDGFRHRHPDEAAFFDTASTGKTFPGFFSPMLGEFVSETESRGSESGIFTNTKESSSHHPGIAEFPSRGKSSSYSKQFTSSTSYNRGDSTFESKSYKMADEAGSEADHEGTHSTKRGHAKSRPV
Experimental: 30 μL of each dendrimer (at a concentration of 0.25 mg/ml) was added to 100 μL human plasma at 37° C., and polymerisation of fibrinogen was determined using a Sigma Amelung KC4 Delta coagulation analyzer.

## Peptide Dendrimer No. 12 (peptide GPRPG; chain KKKKK)
Human fibrinogen; extract from SURGIFLO paste, about 0.25 mg/ml peptide, not irradiated
  Clotting activity, Non-irradiated control: 1 s
Human fibrinogen; paste irradiated 30 kGy 60Co gamma, stored 2 weeks at room temperature, about 0.25 mg/ml
  Clotting activity, Storage for 2 weeks post irradiation: 1 s
Human fibrinogen; paste irradiated 30 kGy 60Co gamma, stored 4 weeks at room temperature, about 0.25 mg/ml
  Clotting activity, Storage for 4 weeks post irradiation: 1 s
[1]; dendrimer 0.005-2 mg/ml, fibrinogen 3 mg/ml
  copolymerisation with fibrinogen (clotting time): able to copolymerise with fibrinogen almost instantaneously, even at very low concentrations
[1]; dendrimer concentrations above 0.5 mg/ml, fibrinogen 3 mg/ml
  clotting time at high dendrimer concentration: increase in clotting time
[1]; dendrimer range ~0.02-0.5 mg/ml
  clotting: almost instantaneous clotting
[2]
  ability to polymerise fibrinogen in human plasma: able to polymerise fibrinogen in human plasma
  clotting time in human plasma: less than one
